Paper PMC11496930, “Targeting RSV-neutralizing B cell receptors with anti-idiotypic antibodies” (Cell Reports, 2024)

Target: ADI-19425 Fab (human, UniProt P0DOY2)
Assay: BLI; 1D3 IgG or 2C1 IgG (67 nM) on anti-human IgG capture sensors; ADI-19425 Fab in serial dilutions from 250 nM to 0 nM; KB buffer, 30°C; 1:1 binding model
Conditions: both partners purified

Chain of ADI-19425 Fab (VH, as listed by the source, chain 1 of 2): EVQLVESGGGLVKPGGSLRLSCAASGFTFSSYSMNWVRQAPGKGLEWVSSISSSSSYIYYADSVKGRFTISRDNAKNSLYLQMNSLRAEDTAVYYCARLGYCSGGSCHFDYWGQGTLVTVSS
Chain of ADI-19425 Fab (VL, as listed by the source, chain 2 of 2): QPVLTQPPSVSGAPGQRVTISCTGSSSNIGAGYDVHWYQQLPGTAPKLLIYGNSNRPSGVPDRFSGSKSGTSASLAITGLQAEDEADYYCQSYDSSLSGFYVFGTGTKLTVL

Kd | Binder
0.4 nM | 1D3 recombinant IgG (human constant regions) (antibody, V domains shown, also called 1D3-IgG; 1D3 IgG; source: 293-6E cells, purified (Protein A)) VH: QVQIQQSGAELMRPGASVKLSCKATGYTFTGYWIEWVKQRPGHGLEWIGEILSGRGTTNYNEKFKGKATFTADTYSNTAYMQLSSLTTGDSAIYYCARGGFLYGDGPFDYWGQGTTLTVSS VL: DILLTQSPAILSVSPGERVSFSCRASQNIDTHIHWYQQRTNGSPRLLIKYASESISGIPSRFSGSGSGTDFTLTINSVESEDIADYYCQQSNSWPFTFGSGTKLEIK
1.5 nM | 2C1 recombinant IgG (human constant regions) (antibody, V domains shown, also called 2C1-IgG; 2C1 IgG; source: 293-6E cells, purified (Protein A)) VH: QVQLQQSGAELVRPGASVTLSCKASGYIFTDYEIHWLKQTPVHGLEWIGTSDPETGGFAYTQKFKGKAILTADKSSSTAYMELRSLTSEDSAVYYCTRRPYYGSGAWFAYWGQGTLVTVSA VL: DIVMTQSHKFMSTSVGDRVSITCKANHDVNIAVAWYQQKPGQSPKLLIYSASYRYTGVPDRFTGSGSGTDFTFTISSVQAEDLAVYYCQQHYDTPRTFGGGTKLEIK
